Measured values published in patent publication US8840891 (RSR, dated 2014).

Tests used:
Test in all cases: cell-based or functional assay
[1] = molecular target: human TSHR, wild type, expressed on CHO cells (human) (UniProt P16473)
[2] = molecular target: human TSHR with activating mutation A623I, on CHO cells (human) (UniProt P16473)
[3] = molecular target: human TSHR with activating mutation S281I, on CHO cells (human) (UniProt P16473)
[4] = molecular target: TSHR with Thr257 mutated to Alanine expressed on CHO cells (human) (UniProt P16473)
[5] = molecular target: wild type human TSHR (thyrotropin receptor) expressed on CHO cells (human) (UniProt P16473)

B1: 5C9 IgG (human monoclonal autoantibody to the TSHR) (antibody, from another filing, V domains shown)
VH: EVQLVESGGGLIQPGGSLRLSCAASGFTVSSNYMSWVRQAPGKGLEWVSVTYSGGSTSYADSVKGRFTISRDNSKNTLYLQMNSLRAEDTAVYYCARGGRYCSSISCYARSGCDYWGQGTLVTVSS
VL: AIQMTQSPSSLSASVGDRVTITCRASQSISNYLNWYQQKPGKAPKLLIYAASSLQSGVPSRFSGSGSGTDFTLTISSLQPEDFATYYCQQSYSSPSTTFGQGTKLEIK
Binder B1 has a cyclic AMP; Exp 1; 5C9 0.01 µg/mL + M22 3 ng/mL [1] of 48.1 pmol/mL, a cyclic AMP; Exp 1; 5C9 0.1 µg/mL + M22 3 ng/mL [1] of 6 pmol/mL and a cyclic AMP; Exp 1; 5C9 1 µg/mL + M22 3 ng/mL [1] of 0.93 pmol/mL. It also gave a cyclic AMP; Exp 1; 5C9 10 µg/mL + M22 3 ng/mL [1] of 0.36 pmol/mL, a cyclic AMP; Exp 1; 5C9 100 µg/mL + M22 3 ng/mL [1] of 0.35 pmol/mL and a cyclic AMP; Exp 1; 5C9 100 µg/mL only [1] of 0.35 pmol/mL. For the same binder, the cyclic AMP; Exp 2; 5C9 0.001 µg/mL + M22 3 ng/mL [1] was 63.3 pmol/mL, the cyclic AMP; Exp 2; 5C9 0.01 µg/mL + M22 3 ng/mL [1] was 57.3 pmol/mL and the cyclic AMP; Exp 2; 5C9 0.1 µg/mL + M22 3 ng/mL [1] was 4.17 pmol/mL. For the same binder, the cyclic AMP; Exp 2; 5C9 10 µg/mL + M22 3 ng/mL [1] was 0.14 pmol/mL, the cyclic AMP; Exp 2; 5C9 100 µg/mL only [1] was 0.69 pmol/mL and the cyclic AMP; Exp 2; 5C9 + M22 3 ng/mL [1] was 2.54 pmol/mL. The cyclic AMP; Exp 3; 5C9 0.001 µg/mL + M22 0.3 ng/mL [1] was 13.3 pmol/mL, the cyclic AMP; Exp 3; 5C9 0.01 µg/mL + M22 0.3 ng/mL [1] was 13.1 pmol/mL and the cyclic AMP; Exp 3; 5C9 0.1 µg/mL + M22 0.3 ng/mL [1] was 1.43 pmol/mL. For the same binder, the cyclic AMP; Exp 3; 5C9 1 µg/mL + M22 0.3 ng/mL [1] was 0.02 pmol/mL, the cyclic AMP; Exp 3; 5C9 10 µg/mL + M22 0.3 ng/mL [1] was 0.2 pmol/mL and the cyclic AMP; Exp 3; 5C9 100 µg/mL + M22 0.3 ng/mL [1] was 0.05 pmol/mL. It also gave a cyclic AMP; Exp 3; 5C9 100 µg/mL only [1] of 0.58 pmol/mL, a cyclic AMP; Exp 4; 5C9 0.001 µg/mL + M22 0.3 ng/mL [1] of 33.1 pmol/mL and a cyclic AMP; Exp 4; 5C9 0.01 µg/mL + M22 0.3 ng/mL [1] of 31.5 pmol/mL. It also gave a cyclic AMP; Exp 4; 5C9 0.1 µg/mL + M22 0.3 ng/mL [1] of 6 pmol/mL, a cyclic AMP; Exp 4; 5C9 1 µg/mL + M22 0.3 ng/mL [1] of 0.21 pmol/mL and a cyclic AMP; Exp 4; 5C9 10 µg/mL + M22 0.3 ng/mL [1] of 0.4 pmol/mL. The cyclic AMP; Exp 4; 5C9 100 µg/mL + M22 0.3 ng/mL [1] was 0.22 pmol/mL, the cyclic AMP; Exp 4; 5C9 100 µg/mL only [1] was 0.12 pmol/mL and the basal cyclic AMP (buffer only 36.89); 5C9 IgG 0.001 µg/mL [2] was 26.5 pmol/mL. The basal cyclic AMP (buffer only 36.89); 5C9 IgG 0.01 µg/mL [2] was 27 pmol/mL, the basal cyclic AMP (buffer only 36.89); 5C9 IgG 0.1 µg/mL [2] was 19.8 pmol/mL and the basal cyclic AMP (buffer only 36.89); 5C9 IgG 1 µg/mL [2] was 16.4 pmol/mL. For the same binder, the % inhibition of basal cyclic AMP activity; 5C9 IgG 1 µg/mL [3] was 71%, the Cyclic AMP produced; 5C9 0.01 µg/mL + TSH (fmol/cell well) [4] was 21100 and the Cyclic AMP produced; 5C9 0.1 µg/mL + TSH (fmol/cell well) [4] was 7940. The Cyclic AMP produced; 5C9 1.0 µg/mL + TSH (fmol/cell well) [4] was 1590, the Cyclic AMP produced; 5C9 10 µg/mL + TSH (fmol/cell well) [4] was 972 and the Cyclic AMP produced; 5C9 100 µg/mL + TSH (fmol/cell well) [4] was 611. The Cyclic AMP produced; 5C9 100 µg/mL only (fmol/cell well) [4] was 637, the Mutated/wild type (%); 5C9 0.01 µg/mL + TSH [4] was 113% and the Mutated/wild type (%); 5C9 0.1 µg/mL + TSH [4] was 129%. The Mutated/wild type (%); 5C9 1.0 µg/mL + TSH [4] was 114%, the Mutated/wild type (%); 5C9 10 µg/mL + TSH [4] was 152% and the Mutated/wild type (%); 5C9 100 µg/mL + TSH [4] was 103%. The Mutated/wild type (%); 5C9 100 µg/mL only [4] was 111%, the Cyclic AMP produced; 5C9 0.01 µg/mL + TSH (fmol/cell well) [5] was 18700 and the Cyclic AMP produced; 5C9 0.1 µg/mL + TSH (fmol/cell well) [5] was 6140. It also gave a Cyclic AMP produced; 5C9 1.0 µg/mL + TSH (fmol/cell well) [5] of 1400, a Cyclic AMP produced; 5C9 10 µg/mL + TSH (fmol/cell well) [5] of 638 and a Cyclic AMP produced; 5C9 100 µg/mL + TSH (fmol/cell well) [5] of 591. The Cyclic AMP produced; 5C9 100 µg/mL only (fmol/cell well) [5] was 566.
